Laboratory results published in patent US10501552B2, “Multivalent molecules comprising DR5-binding domains” (MacroGenics, Inc., priority 2015, dated 2019).

B1: DR5 mAb 1: anti-human DR5 monoclonal antibody; VL SEQ ID NO:3, VH SEQ ID NO:8 (antibody, listed as Mus musculus, V domains shown)
VH: EVKFLESGGGLVQPGGSLKLSCVASGFDFSRYWMSWVRQAPGKGLEWIGEINPDSNTINYTPSLKDKFIISRDNAKNTLYLQMTKVRSEDTALYYCTRRAYYGNPAWFAYWGQGTLVTVSS
VL: DIVLTQSPASLAVSLGQRATISCRASKSVSSSGYSYMHWYQQKPGQPPKVLIFLSSNLDSGVPARFSGSGSGTDFTLNIHPVEDGDAATYYCQHSRDLPPTFGGGTKLEIK
modifications: (1)..(121) Anti-DR5 Antibody mAb 1 Heavy Chain Variable Region; (1)..(111) Anti-DR5 Antibody mAb 1 Light Chain Variable Region
B2: DR5 mAb 2: murine anti-human DR5 monoclonal antibody; VL SEQ ID NO:13, VH SEQ ID NO:18 (antibody, listed as Mus musculus, V domains shown)
VH: KVQLQQSGAELVKPGASVKLSCKASGYTFTEYILHWVKQKSGQGLEWIGWFYPGNNNIKYNEKFKDKATLTADKSSSTVYMELSRLTSEDSAVYFCARHEQGPGYFDYWGQGTTLTVSS
VL: DIVMTQSHKFMSTSVGDRVSITCKASQDVNTAVAWYQQKPGQSPKLLIYWASTRHTGVPDRFTGSGSGTDYTLTIKSVQAEDLTLYYCQQHYITPWTFGGGTKLEIK
modifications: (1)..(119) Anti-DR5 Antibody mAb 2 Heavy Chain Variable Region; (1)..(107) Anti-DR5 Antibody mAb 2 Light Chain Variable Region

Tests used:
Hs700T = experiment: […]-GLO cell viability assay with vorinostat; type: cell-based; details: Hs700T (Pancreas); 1 μg/ml + 1 μM Vorinostat
A549 = experiment: […]-GLO cell viability assay with vorinostat; type: cell-based, human; details: A549 (Lung); 1 μg/ml + 10 μM Vorinostat
786O = experiment: […]-GLO cell viability assay with vorinostat; type: cell-based; details: 786O (Kidney); 1 μg/ml + 1 μM Vorinostat
COLO205 [1] = experiment: MTS cell proliferation assay; type: cell-based; details: COLO205 (Colon); 1 μg/ml, ±10 μg/ml αmFc; two days
Protocol: (§1) Cell lines obtained from ATCC were cultured under standard tissue culture conditions. Each cell line was plated at ˜2×10^4 cells/well (in 96-well plates), and incubated overnight in F12/DMEM media supplemented with 10% FBS. […] Cell viability was determined using Promega CellTiter 96® AQeous Non-Radioactive Cell Proliferation Assay (Cat # G5430) essentially as described in the manufacturer's instructions to assay the amount of soluble formazan produced by cellular reduction of the MTS, which is a measure of the number of viable cells in the culture. Briefly, MTS/PMS regent was added to the wells and the absorbance at 490 nm (referenced at […]) was read in a Molecular Devices ThermoMax microplate reader.
(§2) Similar studies were performed over a range of anti-DR5 mAb concentrations from ˜10^−3 nM to ˜10^2 nM. The data for COLO205 cells is provided in FIG. 13, and are representative of cell lines sensitive to the antibodies of the invention.
(§3) The cytotoxicity of tetravalent DR5-Binding Molecules of the present invention was investigated. […] His-tagged TRAIL (R&D systems) was used as a positive control.
Similar studies were performed over a range of anti-DR5 mAb concentrations from ˜10^−3 nM to ˜10^2 nM.
His-tagged TRAIL (R&D systems) was used as a positive control.

NCI-N87 = experiment: […]-GLO cell viability assay with vorinostat; type: cell-based; details: NCI-N87 (Stomach); 1 μg/ml + 1 μM Vorinostat
[2] = biological target: cynomolgus monkey DR5 (His-tagged); experiment: Biacore analysis of binding kinetics; set-up: ka / kd: unit not given here; details: tested as DR5×CD3 mAb 2 diabody
Protocol: Bispecific DR5×CD3 diabodies were incubated with His-tagged DR5 and the kinetics of binding was determined via Biacore analysis. […] FIG. 6, Panels A-D show the results for human DR5. FIG. 6, Panels E-H show the results for cynomolgus monkey DR5.

MDA-MB-175VII = experiment: […]-GLO cell viability assay with vorinostat; type: cell-based; details: MDA-MB-175VII (Breast); 1 μg/ml + 1 μM Vorinostat
COLO205 [3] = experiment: […]-GLO cell viability assay with vorinostat; type: cell-based; details: for synergy with vorinostat: 0.1 or 1 μM vorinostat; for Average % Ctrl: one day
Protocol: For the first study COLO205 cells were plated at 2×10^4 cells/well (in 96-well plates), and incubated overnight in F12/DMEM media supplemented with 10% FBS. […] Cell viability was determined using Promega […]-GLO® Luminescent Cell Viability Assay (Cat # G5430) essentially as described in the manufacturer's instructions to assay the amount of ATP present, which is a measure of the number of viable cells in the culture. Briefly, an […]-GLO® Reagent was added to the wells and mixed for two minutes to induce lysis and the luminescence was read in a in PerkinElmer EnVision multilabel plate reader.
Cell viability of cells treated with the test articles is normalized to the corresponding negative control (medium±vorinostat) which is set to 100% and reported in Table 12 as % of control for each test agent alone or % control for each test agent in combination with vorinostat. % of control values less than 100% indicate a reduction in viability and reflect the cytotoxicity of the test article alone or in combination with vorinostat.
The Net Gain (Average % Growth Inhibition)=% Medium Ctrl (10% FBS)−% Medium Ctrl (1/10 μM vorinostat), and represents increased cytotoxicity of the test article in combination with vorinostat over cells treated with vorinostat alone.

LNCap = experiment: […]-GLO cell viability assay with vorinostat; type: cell-based, human; details: LNCap (Prostate); 1 μg/ml + 10 μM Vorinostat
22RV1 = experiment: […]-GLO cell viability assay with vorinostat; type: cell-based; details: 22RV1 (Prostate); 1 μg/ml + 10 μM Vorinostat
PC3 = experiment: […]-GLO cell viability assay with vorinostat; type: cell-based; details: PC3 (Prostate); 1 μg/ml + 1 μM Vorinostat
MCF7 = experiment: […]-GLO cell viability assay with vorinostat; type: cell-based; details: MCF7 (Breast); 1 μg/ml + 10 μM Vorinostat
HPAFII = experiment: […]-GLO cell viability assay with vorinostat; type: cell-based; details: HPAFII (Pancreas); 1 μg/ml + 10 μM Vorinostat
[4] = test system: cell lines obtained from ATCC; experiment: MTS cell proliferation assay, panel of cell lines; type: cell-based; details: for inhibition of cell growth, antibody alone: any of cell lines examined, not cross-linked; for cytotoxicity when cross-linked: cross-linked by goat anti-mouse IgG Fc antibody
Protocol: as §1, §2, §3

histidine tagged TRAIL = histidine tagged TRAIL (Homo sapiens, UniProt P50591); experiment: binding to TRAIL-His coat; details: 2 μg/mL biotinylated; 1 μg/mL TRAIL-His coat
Sequence of histidine tagged TRAIL (P50591 114-281 limits assumed): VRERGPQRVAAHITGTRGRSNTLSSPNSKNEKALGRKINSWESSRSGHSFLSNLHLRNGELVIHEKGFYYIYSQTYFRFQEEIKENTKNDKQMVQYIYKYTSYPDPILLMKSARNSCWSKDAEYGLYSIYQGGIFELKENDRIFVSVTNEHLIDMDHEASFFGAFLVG
Protocol: The amount of immobilized biotinylated antibody was assessed.

SKOV3 = experiment: […]-GLO cell viability assay with vorinostat; type: cell-based; details: SKOV3 (Ovary); 1 μg/ml + 1 μM Vorinostat
MDA-MB-361 = experiment: […]-GLO cell viability assay with vorinostat; type: cell-based; details: MDA-MB-361 (Breast); 1 μg/ml + 10 μM Vorinostat
DU145 = experiment: […]-GLO cell viability assay with vorinostat; type: cell-based, human; details: DU145 (Prostate); 1 μg/ml + 10 μM Vorinostat
[5] = Vorinostat 0 μM, % Medium Ctrl (10% FBS), 10 ng/ml tetravalent molecule or 1 μg/ml DR5 mAb
[6] = Vorinostat 0.1 μM, normalized to medium + vorinostat
[7] = Vorinostat 1 μM, normalized to medium + vorinostat

Molecule | Net Gain (Average % Growth Inhibition) (Hs700T) [%] | Net Gain (Average % Growth Inhibition) (A549) [%] | Net Gain (Average % Growth Inhibition) (786O) [%] | % Inhibition (Average) (COLO205 [1]) [%] | Net Gain (Average % Growth Inhibition) (NCI-N87) [%] | Kd [2] [µM] | ka [2] | kd [2] | Net Gain (Average % Growth Inhibition) (MDA-MB-175VII) [%] | synergy with vorinostat (COLO205 [3]) | Average % Ctrl (COLO205 [3]; [5]) [%] | Net Gain (Average % Growth Inhibition) (COLO205 [3]; Vorinostat 0.1 μM) [%] | Average % Ctrl (COLO205 [3]; [6]) [%] | Net Gain (Average % Growth Inhibition) (COLO205 [3]; Vorinostat 1 μM) [%] | Average % Ctrl (COLO205 [3]; [7]) [%] | Net Gain (Average % Growth Inhibition) (LNCap) [%] | Net Gain (Average % Growth Inhibition) (22RV1) [%] | Net Gain (Average % Growth Inhibition) (PC3) [%] | Net Gain (Average % Growth Inhibition) (MCF7) [%] | Net Gain (Average % Growth Inhibition) (HPAFII) [%] | further results
B1 | 0.22 | 6.48 | 0.64 | 3.5 | 0.12 | 0.0325 | 4.0 × 10^6 | 1.3 × 10^−1 | 0.95 | did not synergize | 96.8 | 0 | 96.4 | 3 | 93.3 | 3.81 | 7.49 | 1.59 | 4.55 | 1.75 | inhibition of cell growth, antibody alone [4]: neither DR5 mAb 1, nor DR5 mAb 2 alone is capable of inhibiting cell growth; cytotoxicity when cross-linked [4]: potent cytotoxicity; amount of immobilized biotinylated antibody (histidine tagged TRAIL): 0.007; Net Gain (Average % Growth Inhibition) (SKOV3): 1.75%; Net Gain (Average % Growth Inhibition) (MDA-MB-361): 5.11%; Net Gain (Average % Growth Inhibition) (DU145): 4.18%
B2 | 0.22 | 6.48 | 2.33 | 3.61 | 0.36 | 0.00042 | 2.4 × 10^5 | 1.0 × 10^−4 | 0.95 | did not synergize | 96.4 | 0 | 96.5 | 1 | 95.5 | 4.49 | 7.49 | 1.59 | 5.00 | 2.86 | inhibition of cell growth, antibody alone [4]: neither DR5 mAb 1, nor DR5 mAb 2 alone is capable of inhibiting cell growth; cytotoxicity when cross-linked [4]: potent cytotoxicity; amount of immobilized biotinylated antibody (histidine tagged TRAIL): 0.008; Net Gain (Average % Growth Inhibition) (SKOV3): 1.75%; Net Gain (Average % Growth Inhibition) (MDA-MB-361): 5.11%; Net Gain (Average % Growth Inhibition) (DU145): 4.18%
